The source of these data is patent US10251952B2, “Humanized anti-tau(pS422) antibody brain shuttles and use thereof” (Hoffmann-La Roche Inc., priority 2014, dated 2019).

The assay deals with human tau(pS422) (Homo sapiens, UniProt P10636, S739X). Description: BIAcore kinetic screening and kinetic rates of humanized VH/VL combinations. The format is binding. The conditions noted are these: 25 °C. On the procedure: In the following Table characteristics of the different humanized variants of the rabbit light chain variable domain in combination with the humanized heavy chain variable domains VH14 and VH20, respectively, are shown. Binding partner was human tau(pS422).
Kinetic screening was performed according to Schraeml et al. (Schraeml, M. and M. Biehl, Methods Mol. Biol. 901 (2012) 171-181) on a BIAcore 4000 instrument, mounted with a BIAcore CM5 sensor. The BIAcore 4000 instrument was under the control of the software version V1.1. A BIAcore CM5 series S chip was mounted into the instrument and was hydrodynamically addressed and preconditioned according to the manufacturer's instructions. The instrument buffer was HBS-EP buffer (10 mM HEPES (pH 7.4), 150 mM NaCl, 1 mM EDTA, 0.05% (w/v) P20). An antibody capture system was prepared on the sensor surface. A polyclonal goat anti-human antibody with human IgG-Fc specificity (Jackson Lab.) was immobilized at 30 μg/ml in 10 mM sodium acetate buffer (pH 5) to spots 1, 2, 4 and 5 in the instrument's flow cells 1, 2, 3 and 4 at 10,000 RU using NHS/EDC chemistry. In each flow cell the antibodies were captured on spot 1 and spot 5. Spot 2 and spot 4 were used as reference spots. The sensor was deactivated with a 1 M ethanolamine solution. Humanized antibody derivatives were applied at concentrations between 44 nM and 70 nM in instrument buffer supplemented with 1 mg/ml CMD (carboxymethyldextrane). The antibodies were injected at a flow rate of 30 μl/min for 2 minutes. The capture level (CL) of the surface-presented antibodies was measured in rel. response units (RU). The analytes in solution, phosphorylated human tau protein, non-phosphorylated human tau protein and the phosphorylated human tau mutant protein T422S were injected at 300 nM for 3 minutes at a flow rate of 30 μl/minute. The dissociation was monitored for 5 minutes. The capture system was regenerated by a 1 minute injection of 10 mM glycine buffer, pH 1.7 at 30 μL/minute over all flow cells. Two report points, the recorded signal shortly before the end of the analyte injection, denoted as binding late (BL) and the recorded signal shortly before the end of the dissociation time, stability late (SL), were used to characterize the kinetic screening performance. Furthermore, the dissociation rate constant kd (1/s) was calculated according to a Langmuir model and the antibody/antigen complex half-life was calculated in minutes according to the formula ln(2)/(60*kd). The molar ratio (MR) was calculated according to the formula MR=(Binding Late (RU))/(Capture level (RU))*(MW(antibody)/(MW(antigen)). In case the sensor was configured with a suitable amount of antibody ligand capture level, each antibody should be able to functionally bind at least to one analyte in solution, which is represented by a molar ratio of MR=1.0. Then, the molar ratio is also an indicator for the valence mode of analyte binding. The maximum valence can be MR=2 for an antibody binding two analytes, one with each Fab valence.
In another embodiment, kinetic rates were determined at 25° C. and 37° C. using the same experimental setup, but using multiple concentration series of each analyte in solution at 0 nM (buffer), 1.2 nM, 3.7 nM, 11.1 nM, 33.3 nM, 100 nM and 300 nM. From the concentration-dependent binding behavior the kinetic data was calculated using the BIAcore evaluation software according to the manufacturer's instructions and a Langmuir 1.1 model with RMAX global.
In general terms: In SPR one partner is held on a chip, and binding of the other changes the refractive index at the surface.

Values joined by “and” are separate entries in the source; they are usually repeats but may differ in a detail not shown here. Identical values can stand only once.

B1: VH14 with VL17: anti-human tau(pS422) antibody; VH SEQ ID NO: 50, VL SEQ ID NO: 37 (antibody, V domains shown)
VH: QQLVESGGGLVQPGGSLRLSCAASGFSLSSNAINWVRQAPGKGLEWVGYIAVSGNTYYASWAKGRFTISRDNSKNTLYLQMNSLRAEDTAVYYCGKSNIWGPGTLVTVSS
VL: DIQMTQSPSSLSASVGDRVTITCRSSQSVRTNKLAWFQQKPGQPPKRLIYSASTLDFGVPSRFSGSGSGTEFTLTISSLQPEDFATYYCLGYFDCSIADCVAFGGGTKVEIK
modifications: humanized sequence
Take B1: where the note is “VH14 or VH20 with VL variants”, the “kd” value was 0.00303 s⁻¹ and 0.00239 s⁻¹; the “t/2 diss” value was 4 min and 5 min. For the same molecule, for the setting “VL17 or VL19 with VH variants”, the “kd” value is 0.003 s⁻¹ and the “t/2 diss” value is given as 4 min.

B2: VH14 with VL40: anti-human tau(pS422) antibody; VH SEQ ID NO: 50, VL SEQ ID NO: 43 (antibody, V domains shown)
VH: QQLVESGGGLVQPGGSLRLSCAASGFSLSSNAINWVRQAPGKGLEWVGYIAVSGNTYYASWAKGRFTISRDNSKNTLYLQMNSLRAEDTAVYYCGKSNIWGPGTLVTVSS
VL: DIQMTQSPSSLSASVGDRVTITCRSSQSVRTNRLAWFQQKPGQPPKRLIYSASTLDFGVPSRFSGSGSGTEFTLTISSLQPEDFATYYCLGYFDPSADPVAFGGGTKVEIK
modifications: humanized sequence
For the molecule B2, where the note is “VH14 or VH20 with VL variants”, the “kd” value was determined as 0.00301 s⁻¹ and the “t/2 diss” value is given as 4 min.

B3: VH14 with VL21: anti-human tau(pS422) antibody; VH SEQ ID NO: 50, VL SEQ ID NO: 16 (antibody, V domains shown)
VH: QQLVESGGGLVQPGGSLRLSCAASGFSLSSNAINWVRQAPGKGLEWVGYIAVSGNTYYASWAKGRFTISRDNSKNTLYLQMNSLRAEDTAVYYCGKSNIWGPGTLVTVSS
VL: AQVMTQSPSSLSASVGDRVTITCRSSQSVRTNKLAWFQQKPGQPPKRLIYSASTLDFGVPSRFSGSGSGTEFTLTISSLQPEDFATYYCLGYFDSSADIVAFGGGTKVEIK
modifications: humanized sequence
On to B3, for which, for the setting “VH14 or VH20 with VL variants”, the “kd” value was found to be 0.00293 s⁻¹ and the “t/2 diss” value stood at 4 min.

B4: VH14 with VL33: anti-human tau(pS422) antibody; VH SEQ ID NO: 50, VL SEQ ID NO: 40 (antibody, V domains shown)
VH: QQLVESGGGLVQPGGSLRLSCAASGFSLSSNAINWVRQAPGKGLEWVGYIAVSGNTYYASWAKGRFTISRDNSKNTLYLQMNSLRAEDTAVYYCGKSNIWGPGTLVTVSS
VL: AIQMTQSPSSLSASVGDRVTITCRSSQSVRTNRLAWFQQKPGQPPKRLIYSASTLDFGVPSRFSGSGSGTEFTLTISSLQPEDFATYYCLGYFDSSIADIVAFGGGTKVEIK
modifications: humanized sequence
For B4, for the setting “VH14 or VH20 with VL variants”, the “kd” value amounted to 0.0102 s⁻¹ and the “t/2 diss” value was determined as 1 min.

B5: VH14 with VL22: anti-human tau(pS422) antibody; VH SEQ ID NO: 50, VL SEQ ID NO: 17 (antibody, V domains shown)
VH: QQLVESGGGLVQPGGSLRLSCAASGFSLSSNAINWVRQAPGKGLEWVGYIAVSGNTYYASWAKGRFTISRDNSKNTLYLQMNSLRAEDTAVYYCGKSNIWGPGTLVTVSS
VL: AQVMTQSPSSLSASVGDRVTITCRSSQSVRTNRLAWFQQKPGQPPKRLIYSASTLDYGVPSRFSGSGSGTEFTLTISSLQPEDFATYYCLGYFDSSADIVAFGGGTKVEIK
modifications: humanized sequence
For B5, under “VH14 or VH20 with VL variants”, the “kd” value was found to be 0.0033 s⁻¹ and the “t/2 diss” value is given as 4 min.

B6: VH14 with VL19: anti-human tau(pS422) antibody; VH SEQ ID NO: 50, VL SEQ ID NO: 38 (antibody, V domains shown)
VH: QQLVESGGGLVQPGGSLRLSCAASGFSLSSNAINWVRQAPGKGLEWVGYIAVSGNTYYASWAKGRFTISRDNSKNTLYLQMNSLRAEDTAVYYCGKSNIWGPGTLVTVSS
VL: AQVMTQSPSSLSASVGDRVTITCRSSQSVRTNKLAWFQQKPGQPPKRLIYSASTLDFGVPSRFSGSGSGTEFTLTISSLQPEDFATYYCLGYFDCSIADCVAFGGGTKVEIK
modifications: humanized sequence
For the molecule B6, under “VH14 or VH20 with VL variants”, the “kd” value worked out at 0.00198 s⁻¹ and the “t/2 diss” value was 6 min. In addition, where the note is “VL17 or VL19 with VH variants”, the “kd” value was determined as 0.002 s⁻¹ and the “t/2 diss” value was 6 min.

B7: VH14 with VL35: anti-human tau(pS422) antibody; VH SEQ ID NO: 50, VL SEQ ID NO: 41 (antibody, V domains shown)
VH: QQLVESGGGLVQPGGSLRLSCAASGFSLSSNAINWVRQAPGKGLEWVGYIAVSGNTYYASWAKGRFTISRDNSKNTLYLQMNSLRAEDTAVYYCGKSNIWGPGTLVTVSS
VL: AIQMTQSTSSLSASVGDRVTITCRSSQSVRTNRLAWFQQKPGQPPKRLIYSASTLDFGVPSRFSGSGSGTEFTLTISSLQPEDFATYYCLGYFDSSIADIVAFGGGTKVEIK
modifications: humanized sequence
In the case of B7, where the note is “VH14 or VH20 with VL variants”, the “kd” value stood at 0.011 s⁻¹ and the “t/2 diss” value came out at 1 min.

B8: VH14 with VL39: anti-human tau(pS422) antibody; VH SEQ ID NO: 50, VL SEQ ID NO: 42 (antibody, V domains shown)
VH: QQLVESGGGLVQPGGSLRLSCAASGFSLSSNAINWVRQAPGKGLEWVGYIAVSGNTYYASWAKGRFTISRDNSKNTLYLQMNSLRAEDTAVYYCGKSNIWGPGTLVTVSS
VL: DIQMTQSPSSLSASVGDRVTITCRSSQSVRTNRLAWFQQKPGQPPKRLIYSASTLDFGVPSRFSGSGSGTEFTLTISSLQPEDFATYYCLGYFDPSIADPVAFGGGTKVEIK
modifications: humanized sequence
For the molecule B8, under “VH14 or VH20 with VL variants”, the “kd” value came out at 0.00522 s⁻¹ and the “t/2 diss” value was 2 min.

B9: VH14 with VL00: anti-human tau(pS422) antibody; VH SEQ ID NO: 50, VL SEQ ID NO: 07 (antibody, listed as Oryctolagus cuniculus, V domains shown)
VH: QQLVESGGGLVQPGGSLRLSCAASGFSLSSNAINWVRQAPGKGLEWVGYIAVSGNTYYASWAKGRFTISRDNSKNTLYLQMNSLRAEDTAVYYCGKSNIWGPGTLVTVSS
VL: AQVLTQTTSPVSAAVGSTVTISCQSSQSVRTNKLAWFQQKPGQPPKRLIYSASTLDFGVPSRFSASGSGTQFTLTISDVQCDDAATYYCLGYFDCSIADCVAFGGGTEVVVK
modifications: humanized sequence
As to B9, under “VH14 or VH20 with VL variants”, the “kd” value was 0.00104 s⁻¹ and the “t/2 diss” value amounted to 11 min.

B10: VH14 with VL28: anti-human tau(pS422) antibody; VH SEQ ID NO: 50, VL SEQ ID NO: 39 (antibody, V domains shown)
VH: QQLVESGGGLVQPGGSLRLSCAASGFSLSSNAINWVRQAPGKGLEWVGYIAVSGNTYYASWAKGRFTISRDNSKNTLYLQMNSLRAEDTAVYYCGKSNIWGPGTLVTVSS
VL: AIQMTQSPSTLSASVGDRVTITCRSSQSVRTNRLAWFQQKPGKAPKRLIYSASTLDFGVPSRFSGSGSGTEFTLTISSLQPDDFATYYCLGYFDPSADPVAFGGGTKVEIK
modifications: humanized sequence
On to B10, for which, under “VH14 or VH20 with VL variants”, the “kd” value came to 0.00384 s⁻¹ and the “t/2 diss” value worked out at 3 min.
